Where “and” joins values, the source holds several entries; their conditions need not be identical. Equal entries are not always repeated. Where two headings read alike, the source gives them in different places.
What was measured:
human 5T4-His protein [1] = target: T1, human 5T4-His protein (human, UniProt Q13641 32-355); experiment: ELISA, coated human 5T4
T1 construct: also called recombinant 5T4 protein (human 5T4-his tag); human 5T4 protein; not shown: His tag
T1 sequence (looked up): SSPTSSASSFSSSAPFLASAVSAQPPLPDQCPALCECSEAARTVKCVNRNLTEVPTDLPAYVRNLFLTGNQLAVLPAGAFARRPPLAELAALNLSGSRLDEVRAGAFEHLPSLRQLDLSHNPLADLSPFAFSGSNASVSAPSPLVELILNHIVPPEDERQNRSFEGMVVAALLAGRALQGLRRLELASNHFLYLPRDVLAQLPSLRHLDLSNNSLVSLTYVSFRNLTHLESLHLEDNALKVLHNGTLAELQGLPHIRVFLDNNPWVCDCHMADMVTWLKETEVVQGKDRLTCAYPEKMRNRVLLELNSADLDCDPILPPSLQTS
Description: To evaluate the binding activity of clones, the 286B4 chimeric antibody along with 286B4 humanized mAbs were subjected to ELISA test.
Briefly, microtiter plates were coated with human 5T4-His protein at 1 μg/ml in PBS, 100 μl/well at 4° C. overnight, then blocked with 150 μl/well of 1% BSA. 4-fold dilutions of tested antibodies starting from 20 nM were added to each well and incubated for 1 hour at 37° C. The plates were washed with PBS/Tween and then incubated with Goat Anti-Human IgG-HRP for 30 mins at 37° C. After washing, the plates were developed with TMB substrate and analyzed by spectrophotometer at OD 450 nm. As shown in FIG. 16 and Table 15, most of the humanized clones bound to human 5T4 with high potency.

human 5T4-His protein [2] = target: T1, human 5T4-His protein; experiment: SPR Biacore, Protein A capture
Description: The binding of the 286B4 humanized antibodies to recombinant 5T4 protein (human 5T4-his tag) was tested with Biacore using a capture method. The mAbs were captured using Protein A chip. A serial dilution of human 5T4-his tag protein was injected over captured antibody for 3 mins at a flow rate of 30 μl/min. The antigen was allowed to dissociate for 280-800 s. All the experiments were carried out on a Biacore T200. Data analysis was carried out using the Biacore T200 evaluation software.

human 5T4-His protein [3] = target: T1, human 5T4-His protein; experiment: ELISA, coated 5T4-His
In short: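 Plates coated overnight at 4° C with 1 μg/ml 5T4-His, blocked with 1% BSA. Antibodies in 4-fold dilutions from 20 nM, 1 h at 37° C; bound antibody detected with anti-human IgG-HRP (30 min, 37° C), TMB development, OD 450 nm.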

human 5T4-His protein [4] = target: T1, human 5T4-His protein; experiment: SPR Biacore, Protein A capture; remark: listed apart in the source
Description: The binding of the chimeric mAbs from these clones against recombinant 5T4 protein (human 5T4-his tag) was tested with Biacore using a capture method. The mAbs were captured using Protein A chip. A serial dilution of human 5T4-his tag protein was injected over captured antibody for 2-3 mins at a flow rate of 30 μl/min. The antigen was allowed to dissociate for 360-1000 s. All the experiments were carried out on a Biacore T200. Data analysis was carried out using Biacore T200 evaluation software.

human 5T4-His protein [5] = target: T1, human 5T4-His protein; experiment: SPR Biacore, Protein A capture; remark: listed apart in the source
Description: The binding of the 393E9 humanized antibodies to recombinant 5T4 protein (human 5T4-his tag) was tested with Biacore using a capture method. The mAbs were captured using Protein A chip. A serial dilution of human 5T4-his tag protein was injected over captured antibody for 3 mins at a flow rate of 30 μl/min. The antigen was allowed to dissociate for 280-800 s. All the experiments were carried out on a Biacore T200. Data analysis was carried out using the Biacore T200 evaluation software.

human 5T4-His protein [6] = target: T1, human 5T4-His protein; experiment: ELISA, coated 5T4-His; remark: listed apart in the source
Description: To evaluate the binding activity of 393E9 humanized antibodies to human 5T4, the 393E9 chimeric antibody (393E9-C) along with 393E9 humanized mAbs were subjected to ELISA test.
Briefly, microtiter plates were coated with human 5T4-His protein at 1 μg/ml in PBS, 100 μl/well at 4° C. overnight, then blocked with 150 μl/well of 1% BSA. 4-fold dilutions of antibodies starting from 20 nM were added to each well and incubated for 1 hour at 37° C. The plates were washed with PBS/Tween and then incubated with Goat Anti-Human IgG-HRP for 30 mins at 37° C. After washing, the plates were developed with TMB substrate and analyzed by spectrophotometer at OD 450 nm. As shown in FIG. 12 and Table 9, most of the humanized antibodies bound to human 5T4 with high activity.

[7] = target: T2, human 5T4 expressed on cells (human, UniProt Q13641 32-420); experiment: flow cytometry, CHOK1-hu5T4 cells
T2 construct: whole, on cells; also called CHOK1-hu5T4; CHO-K1-expressing human 5T4
T2 sequence (looked up): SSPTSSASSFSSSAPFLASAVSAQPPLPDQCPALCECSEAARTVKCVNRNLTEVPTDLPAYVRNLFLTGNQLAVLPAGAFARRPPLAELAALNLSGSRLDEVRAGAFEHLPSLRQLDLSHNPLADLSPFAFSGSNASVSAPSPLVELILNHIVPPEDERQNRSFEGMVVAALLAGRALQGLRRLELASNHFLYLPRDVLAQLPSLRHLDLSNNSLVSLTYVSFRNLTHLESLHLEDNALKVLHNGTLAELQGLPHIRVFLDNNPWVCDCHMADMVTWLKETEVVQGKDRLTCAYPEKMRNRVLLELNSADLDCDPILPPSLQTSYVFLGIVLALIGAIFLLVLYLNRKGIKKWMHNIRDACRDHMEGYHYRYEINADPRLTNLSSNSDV

human 5T4-His protein [8] = target: T1, human 5T4-His protein; experiment: ELISA, coated antigen
cynomolgus 5T4 protein = target: T3, cynomolgus 5T4 protein (cynomolgus monkey, UniProt Q4R8Y9 35-355, limits assumed); experiment: ELISA, coated antigen
T3 construct: Coated protein in ELISA; the screening step names a cyno 5T4-His protein; also called cyno 5T4; recombinant cyno 5T4-His protein
T3 sequence (looked up): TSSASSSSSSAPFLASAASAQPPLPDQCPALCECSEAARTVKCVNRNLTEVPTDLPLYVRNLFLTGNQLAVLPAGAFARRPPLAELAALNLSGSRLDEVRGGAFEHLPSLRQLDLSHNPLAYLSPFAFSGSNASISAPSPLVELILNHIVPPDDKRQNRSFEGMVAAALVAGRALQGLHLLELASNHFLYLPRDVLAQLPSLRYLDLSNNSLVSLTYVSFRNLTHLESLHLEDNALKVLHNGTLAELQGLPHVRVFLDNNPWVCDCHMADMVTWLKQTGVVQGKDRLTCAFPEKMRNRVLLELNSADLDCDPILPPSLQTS

human 5T4-His protein [9] = target: T1, human 5T4-His protein; experiment: competitive ELISA, coated human 5T4, vs naptumomab-biotin
human 5T4-His protein [10] = target: T1, human 5T4-His protein; experiment: as above; remark: listed apart in the source
human 5T4-His protein [11] = target: T1, human 5T4-His protein; experiment: SPR Biacore, Protein A capture; remark: listed apart in the source
In short: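 Humanized 14G12 antibodies captured on a Protein A chip; serial dilutions of human 5T4-His injected for 120 s-180 s at 30 μl/min, with dissociation over 360 s-1000 s on a Biacore T200.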

human 5T4-His protein [12] = target: T1, human 5T4-His protein; experiment: competitive ELISA, coated human 5T4, vs 257F1-biotin
Description: Competitive ELISA was carried out to classify the test 5T4 mAbs based on the binding epitope to human 5T4.
Briefly, microtiter plates were coated with human 5T4 proteins at 0.5 μg/ml in PBS, 100 μl/well at 4° C. overnight, then blocked with 150 μl/well of 1% BSA. Serial dilutions of chimeric antibodies as well as 0.2 ug/ml biotin-conjugated reference mAb were added to each well and incubated for 1 hour at RT. The plates were washed with PBS/Tween and then incubate with streptavidin-HRP for 15 mins at RT. After washing, the plates were developed with TMB substrate and analyzed by spectrophotometer at OD 450 nm. According to the competition performance with reference mAbs, the 5T4 mAbs were divided into four bins (Bin A-D), as shown in FIG. 3-8 and Table 4.

human 5T4-His protein [13] = target: T1, human 5T4-His protein; experiment: as above; remark: listed apart in the source
human 5T4-His protein [14] = target: T1, human 5T4-His protein; experiment: as above; remark: listed apart in the source
human 5T4-His protein [15] = target: T1, human 5T4-His protein; experiment: competitive ELISA, coated human 5T4, vs 159D5-biotin

B1: Hu286B4-10 (antibody, V domains shown)
VH: EVQLQESGPGLVKPSDTLSLTCAVSGYSISNNYYWNWIRQPPGKGLEWIGYITYDGSNNYNPSLKNRITMSRDTSKNQFSLKLSSVTAVDTAVYYCARGGGQLRFDYWGQGTTVTVSS
VL: SIVMTQSPSSLSASVGDRVTITCKASQSVSNEVTWYQQKPGKSPKMLIYYASNRYTGVPDRFSGSGYGTDFTFTISSLQPEDIATYFCQQDYSSPWTFGGGTKVEIK
notes: humanized
Human 5T4-His protein [1]
  EC50 (read off the curve): ~0.08 nM
Human 5T4-His protein [2]
  Kd: 1.93 nM
  koff: 0.000204 s⁻¹
  kon: 106000 M⁻¹ s⁻¹
Human 5T4-His protein [3]
  EC50: 2.61 nM

B2: 393E9 chimeric antibody (antibody, V domains shown)
VH: EVKLVESGGGLVQPGGSLSLSCAASGFTFTDYYMSWVRQPPGKALEWLGFIRNKGNGYTTENSASVKGRFTISRDNSQSILYLQMNALRAEDSATYYCARYRGNPHYAMDYWGQGTSVTVSS
VL: DIVLTQFPASLAVSLGQRATISCRASESVEFYGTSFLQWYQQKPGQPPKLLIYGASNVESGVPARFSGSGSGTDFSLSIHPVEEDDIAMYFCQQSRKVPSTFGGGTKLEIK
notes: chimeric mAb
Human 5T4-His protein [4]
  Kd: 0.0565 nM
  koff: 0.000183 s⁻¹
  kon: 3.24e+06 M⁻¹ s⁻¹
Human 5T4-His protein [5]
  Kd: 0.463 nM
  koff: 0.000107 s⁻¹
  kon: 231000 M⁻¹ s⁻¹
Human 5T4-His protein [6]
  EC50: 0.27 nM and 0.13 nM and 0.23 nM
[7]
  EC50 (read off the curve): 5 nM
Human 5T4-His protein [8]
  EC50: 0.37 nM
Cynomolgus 5T4 protein
  EC50: 0.14 nM
Human 5T4-His protein [9]
  IC50 (read off the curve): ~5 nM

B3: 14G12 chimeric antibody (antibody, V domains shown)
VH: EVQLQQSGPELVKPGASVKISCKASGYAFSSSWMNWVKQRPGKGLEWIGRIYREDGHTNYNGKFKGKATLTADKSSTTAYMQLTSLTSEDSAVYFCANGGAMDYWGQGTSVTVSS
VL: DIQMTQSTSSLSASLGDRVTISCRASQDISNYLNWYQQKPDGTVKLLIYYTSRLHSGVPSRFSGSGSGTDYSLTISNLEQEDIATYFCQQDNTLPWTFGGGTKLEIK
notes: chimeric mAb
Human 5T4-His protein [4]
  Kd: 0.413 nM
  koff: 0.000222 s⁻¹
  kon: 538000 M⁻¹ s⁻¹
Human 5T4-His protein [10]
  IC50 (read off the curve): ~4 nM
Human 5T4-His protein [11]
  Kd: 0.839 nM and 0.537 nM
  koff: 0.000336 s⁻¹ and 0.00033 s⁻¹
  kon: 401000 M⁻¹ s⁻¹ and 615000 M⁻¹ s⁻¹
Human 5T4-His protein [8]
  EC50: 0.19 nM
Cynomolgus 5T4 protein
  EC50: 0.17 nM

B4: 257F1 chimeric antibody (antibody, V domains shown)
VH: QVLLQQSGAEVARPGASVKLSCKASGYTFTSYGLNWLRQRTGQGLEWIGEIYPRSENTHYNEKFKGKATLTADKSSSTAYMELRSLTSEDSAVYFCARGDWDFDHWGQGTTLTVSS
VL: EILLTQSPAIIPASPGEKVTITCSASSSVSYMNWYQQKPGSSPKIWIYGISNLASGVPARFSGSGSGTFFSFTINSMEAEDVATYYCQQRSSYPRTFGGGTKLEIK
notes: chimeric mAb
Human 5T4-His protein [4]
  Kd: 1.48 nM
  koff: 0.000275 s⁻¹
  kon: 186000 M⁻¹ s⁻¹
Human 5T4-His protein [12]
  IC50 (read off the curve): ~10 nM
Human 5T4-His protein [13]
  IC50 (read off the curve): ~7 nM
Human 5T4-His protein [14]
  IC50 (read off the curve): ~8 nM
Human 5T4-His protein [8]
  EC50: 0.56 nM
Cynomolgus 5T4 protein
  EC50: 0.11 nM

B5: 24F10 chimeric antibody (antibody, V domains shown)
VH: EVQLVESGGGLVKPGGSLKLSCAASGFTFSDYGMHWVRQAPEKGLEWVAYISSGTSTIYYTDTVKGRFTISRDNAKNTLFLQMTSLRSEDTAMYYCARGGDGYYRSTMDYWGQGISVTVSS
VL: DIVLTQSPASLAVSLGQRATISCRASQSVSSSSYSYMHWYQQKPGQPPKLLIKSASNLASGVPARFSGSGSGTDFTLNIHPVEEEDSATYYCQHSWEVPRTFGGGTKLEIK
notes: chimeric mAb
Human 5T4-His protein [4]
  Kd: 0.302 nM
  koff: 0.000126 s⁻¹
  kon: 418000 M⁻¹ s⁻¹
Human 5T4-His protein [15]
  IC50 (read off the curve): ~9 nM
Human 5T4-His protein [8]
  EC50: 0.18 nM
Cynomolgus 5T4 protein
  EC50: 0.21 nM

Reference: patent publication US20250154277A1 (CONCEPT TO MEDICINE BIOTECH, published 2025)
